Here are results for one molecule from patent US20200289560A1 (RUPRECHT KARLS UNIVERSIT T HEIDELBERG, published 2020).

In this test the target is T1, human pyruvate kinase M2 (PKM2) (human, UniProt P14618 1-531).
T1 construct: also called tetrameric PK M2; human PK M2
In words: ultrafiltration (Amicon 30k) of equimolar 2 µM human PK M2 and 2 µM human HMGB1, Western blot of filtrate and retentate. The procedure: Ultrafiltration of the PK M2-HMGB1 complex: equimolar amounts of HMGB1 and PKM2 were mixed in a final volume of 300 μl and filtrated (14000 g, 4° C.) to a final volume of 15 μl in an Amicon Ultra 0.5 ml 30k device (Merck-Millipore, Darmstadt, Germany). The retentate was adjusted to the original volume after centrifugation. Then filtrate and retentate were analyzed by Western Blot. For controls HMGB1 and PKM2 were also analyzed alone. Pure HMGB1 (2 μM) suited as a negative control.
On the technique in general: A western blot detects proteins with antibodies after separation by electrophoresis.

T1 sequence (P14618 whole entry): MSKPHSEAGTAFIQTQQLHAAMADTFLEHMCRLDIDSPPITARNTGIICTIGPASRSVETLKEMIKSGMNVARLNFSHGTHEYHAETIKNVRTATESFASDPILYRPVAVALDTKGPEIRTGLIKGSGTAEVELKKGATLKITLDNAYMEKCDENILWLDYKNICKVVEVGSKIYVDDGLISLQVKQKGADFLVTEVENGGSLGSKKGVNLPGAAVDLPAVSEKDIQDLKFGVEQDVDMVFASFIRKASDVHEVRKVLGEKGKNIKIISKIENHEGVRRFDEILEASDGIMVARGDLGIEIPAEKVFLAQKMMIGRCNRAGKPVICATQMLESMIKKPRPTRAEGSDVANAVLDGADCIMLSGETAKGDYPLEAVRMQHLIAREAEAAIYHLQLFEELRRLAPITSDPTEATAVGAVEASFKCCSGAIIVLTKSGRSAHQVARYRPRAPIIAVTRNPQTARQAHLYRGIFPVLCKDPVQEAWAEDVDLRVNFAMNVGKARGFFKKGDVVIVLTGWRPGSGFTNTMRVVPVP

B1: recombinant human HMGB1 protein (High Mobility Group Box 1 polypeptide) (other)
chain: MGKGDPKKPRGKMSSYAFFVQTCREEHKKKHPDASVNFSEFSKKCSERWKTMSAKEKGKFEDMAKADKARYEREMKTYIPPKGETKKKFKDPNAPKRPPSAFFLFCSEYRPKIKGEHPGLSIGDVAKKLGEMWNNTAADDKQPYEKKAAKLKEKYEKDIAAYRAKGKPDAAKKGVVKAEKSKKKKEEEEDEEDEEDEEEEEDEEDEDEEEDDDDE
notes: also called rhHMGB1; 125I-labelled HMGB1
Regarding B1, the binding result is “binds”.
